# Source: patent US20100209400A1, “TAK1-Mediated Regulation of Osteogenesis” (priority 2003, published 2010)
# B1: TAK1dn: dominant-negative TAK1 mutant (K63W), kinase inactive (protein)
# chain: MSTASAASSSSSSSASEMIEAPSQVLNFEEIDYKEIEVEEVVGRGAFGVVCKAKWRAKDVAIWQIESESERKAFIVELRQLSRVNHPNIVKLYGACLNPVCLVMEYAEGGSLYNVLHGAEPLPYYTAAHAMSWCLQCSQGVAYLHSMQPKALIHRDLKPPNLLLVAGGTVLKICDFGTACDIQTHMTNNKGSAAWMAPEVFEGSNYSEKCDVFSWGIILWEVITRRKPFDEIGGPAFRIMWAVHNGTRPPLIKNLPKPIESLMTRCWSKDPSQRPSMEEIVKIMTHLMRYFPGADEPLQYPCQYSDEGQSNSATSTGSFMDIASTNTSNKSDTNMEQVPATNDTIKRLESKLLKNQAKQQSESGRLSLGASRGSSVESLPPTSEGKRMSADMSEIEARIVATAGNGQPRRRSIQDLTVTGTEPGQVSSRSSSPSVRMITTSGPTSEKPARSHPWTPDDSTDTNGSDNSIPMAYLTLDHQLQPLAPCPNSKESMAVFEQHCKMAQEYMKVQTEIALLLQRKQELVAELDQDEKDQQNTSRLVQEHKKLLDENKSLSTYYQQCKKQLEVIRSQQQKRQGTS
# modifications: left off: small tags and cut ends
# Columns and labels:
# C3H10T½-BMP2 cells [1] = experiment: Semi-quantitative RT-PCR of osteo-/chondrogenic marker genes and Alcian Blue staining; format: cell-based, murine; details: co-expression in C3H10T½-BMP2 cells
# Description: (§1) Proteoglycan-secreting chondrocytes were identified by staining with Alcian Blue at pH 2.5 (Alcian Blue 8GS, Roth, Karlsruhe).
# Total cellular RNA was prepared by TriReagent LS according to the manufacturer's protocol (Molecular Research Center Inc., Ohio, Miss.). Five μg of total RNA was reverse transcribed with oligo-dT primers and cDNA aliquots were subjected to PCR. RT-PCR was normalized by the transcriptional levels of HPRT. The primer pairs and PCR conditions used to evaluate osteo-/chondrogenic differentiation, for collagen Ia1, collagen IIa1, osteocalcin, and the PTH/PTHrP-receptor have been described (Hoffmann A et al, J. Cell Sci 115: 769-781, 2002).
# C3H10T½-BMP2 cells [2] = experiment: Histological analysis and alkaline phosphatase staining of C3H10T½-BMP2 cells; format: cell-based, murine
# Description: Murine C3H10T½ progenitor cells were cultured in high-glucose DMEM containing 10% fetal calf serum, as described (Ahrens Met al, DNA Cell Biol, 12: 871-880, 1993). Cells were stably transfected with expression plasmids encoding wt TAK1, dominant-negative (dn) or constitutively active (ca) TAK1 in pMT7T3-f1 using DOSPER™ according to the manufacturer's protocol (Roche, Mannheim) and a selection plasmid conferring puromycin resistance (pBSpacDp: parental C3H10T½ cells) or G418-resistance (pAG60: BMP2-expressing C3H10T½ cells). Individual clones were picked, propagated, and tested for recombinant expression of TAK1-variants by RT-PCR using a vector-specific and a gene-specific primer. Control cell lines (empty to expression vector) were established at the same time. Cells were plated at a density of 5,000 cells/cm^2. After reaching confluence (arbitrarily termed day 0) ascorbic acid (50 microgram/milliliter (μg/ml)) and b-glycerophosphate (10 millimolar (mM)) were added.
# as §1
# Osteoblast formation was evaluated as a measure of TAK1 influence on osteo-/chondrogenic differentiation potential. C3H10T½-BMP2 cells co-expressing TAK1 and its molecular variants were assessed histologically for alkaline phosphatase (ALP) activity (FIG. 8C), which is indicative of osteoblast differentiation.
# C3H10T½-BMP2 cells [3] = experiment: FACS for apoptosis and cell cycle progression; format: cell-based, murine; details: CDDP 25 μM; etoposide 10 μM; TAK1 variants stably co-expressed
# Description: Exponentially growing cells were harvested 48 hours post-seeding or at different stages at and after confluence by trypsinization and fixation with 80% methanol. Cellular DNA content was determined by staining cells with RNAseS/propidium iodide, and measuring fluorescence in a Becton Dickinson FACScan. For each cell population, 10,000 cells were analyzed, and the proportions in G0/G1, G2/M and S-phases were estimated by using Modfit cell cycle analysis software. Information on cell size (e.g. due to differentiation) and complexity could be obtained from forward and side scatter data following evaluation of relevant cell populations.
# To determine whether TAK1-mediated effects in the assay systems above resulted from apoptosis, C3H10T½-BMP2 cells co-expressing TAK1 variants were assayed by FACS for apoptosis and cell cycle progression.
# [4] = test system: SMAD1-mediated transcription; experiment: SMAD1-SBE CAT reporter assay; format: cell-based, human; details: following activation by constitutively active receptors
# Description: Reporter assays using the GALA DNA binding domain fused to various forms of SMAD proteins were performed as described (Meersseman, G at al, Mech. Dev, 61: 127-140, 1997). Briefly, 420 nanograms (ng) DNA was transfected/well (24 well-plate seeded with 1×10^5 HEK 293T cells) one day prior to transfection. The DNA mix included a plasmid expressing β-galactosidase under the control of the RSV promoter, for normalization purposes and a reporter plasmid encoding firefly luciferase under the control of 5 GAL4 binding sites upstream of a minimal TATA box (pG5 luc, Promega, Mannheim) and combinations of effector plasmids. The DNA content was normalized with empty vector.
# Cells were harvested and lysed. β-Galactosidase (β-gal) activity was measured via the luminescent β-galactosidase kit II (Clontech, Palo Alto, Calif.), and luciferase activity via the luciferase assay system (Promega, Mannheim). All results are expressed as luciferase activity normalized with β-gal values (“relative luciferase activities”). Reporter assays with the SMAD1 DNA binding element SBE-9 (GCCG×9) (Kusanagi K et al, Mol Biol Cell 11: 555-565, 2000) cloned into pCAT5 vector (Boshart M et al, Gene 110: 129-130, 1992) were performed similarly except that cells were lysed in CAT lysis buffer. CAT enzyme was measured via CAT ELISA assay and β-gal via chemiluminescent β-gal reporter gene assay (Roche, Mannheim). […]
molecule,measurement,setting,value
B1,"expression of osteogenic marker genes (osteocalcin, PTH/PTHrP receptor)",C3H10T½-BMP2 cells [1],no effect
same,growth phenotype of C3H10T½-BMP2 cells expressing the TAK1 variant,C3H10T½-BMP2 cells [2]; after confluence,Multiple layer growth
same,osteoblast-like cell formation / ALP activity,"C3H10T½-BMP2 cells [2]; compared to C3H10T½-BMP2 cells, 10 days post-confluence",enhanced ALP activity
same,apoptosis (subG0-G1 peak),C3H10T½-BMP2 cells [3],did not induce apoptosis
same,"inhibition of SMAD1 transcription (CAT reporter), in words",[4],minimal inhibition
